Reference: article PMC3099546

Assays:
[1] = tested on: N[C@@H](CCC(=O)N[C@@H](CSCc1ccc([N+](=O)[O-])cc1)C(=O)NCC(=O)O)C(=O)O; assay: glutamate release assay, Km of hydrolysis; type: biochemical, Homo sapiens
[2] = tested on: CSC[C@H](NC(=O)CC[C@H](N)C(=O)O)C(=O)NCC(=O)O; assay: glutamate release assay, Km of hydrolysis; type: biochemical, Homo sapiens
[3] = tested on: CCCCC/C=C\C\C=C/C=C/C=C/[C@@H](SC[C@H](NC(=O)CC[C@H](N)C(=O)O)C(=O)NCC(=O)O)[C@@H](O)CCCC(=O)O; assay: purified protein; settings: substrate binding site

gamma-glutamyl transpeptidase (GGT1) (Homo sapiens)
Km [1]: 13.10 ± 0.05 µM | kcat [1]: 103 ± 6.67 s⁻¹ | kcat/Km [1]: 7.83e+06 ± 500000 M⁻¹ s⁻¹ | Km [2]: 9.90 ± 0.07 µM | kcat [2]: 95 ± 3.33 s⁻¹ | kcat/Km [2]: 9.5e+06 ± 333000 M⁻¹ s⁻¹ | Km [3]: 10.8 ± 0.1 µM | kcat [3]: 88.3 s⁻¹ | kcat/Km [3]: 8.17e+06 M⁻¹ s⁻¹
